The results in this text go back to the supplement of paper PMC12042874.

± gives the uncertainty stated by the source.

The nature of this data set: amyloid nucleation score (Sup35N fusion, yeast selection) (log enrichment); library NNK2; higher = more nucleation; inactive = no reads after selection. In short, it runs like this: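 Yeast lacking psi expressed peptides of 20 random codons fused to Sup35N, received 100 μM copper sulfate for 24 hours, and were then grown for 7 days at 30°C on medium lacking adenine and uracil. Illumina sequencing of input and output plasmid inserts provided the reads. Nucleation scores are DiMSum log enrichments of output over input, centred on the mode of non-aggregating sequences. Any sequence with under 100 input reads was excluded.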
On to ASGVFSLAEYNFFGISKKSF, for which the amyloid nucleation score result is “inactive”.

In turn, SWMNYRCRQDMSCCK had an amyloid nucleation score of 0.908 ± 0.47.

Take RMLSRSRWLTI: the amyloid nucleation score was -0.169 ± 0.34.

With IMYPLRNLAQDFLGDSVSYL, the amyloid nucleation score was -1.07 ± 0.62.

YGASRNWQKNSLVASEYQVG: the amyloid nucleation score result is “inactive”.

With QVLVWQHMGRSTVLMLY, the amyloid nucleation score was -0.58 ± 0.55.

For SGIAWSLVNVGLGYHYMQGG, the amyloid nucleation score was 0.178 ± 0.39.

Turning to DMWQGEFKLGPRFSDENSQF, the amyloid nucleation score was -0.172 ± 1.1.

For the substance AVMMCIASIDFRVWYLG, the amyloid nucleation score was found to be 1.53 ± 0.15.

On to CRCGWKGDSFKISMKMRNWV, for which the amyloid nucleation score was determined as 5.36 ± 0.066.

Regarding KYFVTNRVVWTDRVSIFGV, the amyloid nucleation score is 1.07 ± 0.53.

VWPQCYLSLVF gave an amyloid nucleation score of -0.082 ± 0.49.

PSIRWNVIIAMSYLQS displayed an amyloid nucleation score of 1.89 ± 0.16.

For SMGYYDLFELYPNRHGYYGF, the amyloid nucleation score entry was “inactive”.

DDYTDTCRCDMFRFSEFLTN: the amyloid nucleation score is -0.534 ± 0.74.

On to LWSLLLWLPTYRYRLYLFGA, for which the amyloid nucleation score was -0.113 ± 0.79.

The substance SLSFCVLEVSTCGCMSGYVG registered an amyloid nucleation score of 10.24 ± 0.05.

The substance HLYMH gave an amyloid nucleation score of 1.62 ± 0.18.

In turn, KFMCSELSNFCINCILRLVV had an amyloid nucleation score of -0.19 ± 1.1.

In turn, RLTSGIW returned an amyloid nucleation score of -0.814 ± 0.76.

In the case of RLPARLGSS, the amyloid nucleation score was determined as 0.23 ± 0.25.

Take CAIKFPYQFTYLNINNQ: the amyloid nucleation score amounted to 6.229 ± 0.044.

For the substance AYSKTNVFNSWWLVKCLFLF, the amyloid nucleation score entry is “inactive”.

MFIMFIAVSFVGRMYGGHRH displayed an amyloid nucleation score of -0.44 ± 0.26.

As to VLLLGVSVRHFKGLGVPTKR, the amyloid nucleation score came to 5.06 ± 0.065.

In turn, MNKNYFSGLPGGSVCYSVEY returned an amyloid nucleation score of -0.732 ± 0.38.

In the case of SCCNL, the amyloid nucleation score is -0.11 ± 0.19.

As for TSERRLNYTCCNYWYMG, the amyloid nucleation score is 9.053 ± 0.04.

In turn, SIGTGRAESL returned an amyloid nucleation score of 0.359 ± 0.57.

Consider PITLTRASALLCKYYAFWTF, for which the amyloid nucleation score is 1.14 ± 0.37.

For the substance NRNTTFLNYF, the amyloid nucleation score is 1.94 ± 0.25.

For the substance LFSYWSVYSGLREVGPYCMV, the amyloid nucleation score was 0.79 ± 0.21.

VQSGWTSKGVLPQVANRTLR registered an amyloid nucleation score of 0.827 ± 0.44.

GLLGWMGAYGANPCYPTTLF displayed an amyloid nucleation score of 0.515 ± 0.8.

In the case of GHNTYGYQRMRGCDV, the amyloid nucleation score was determined as 1.3 ± 0.38.

For LKEDF, the amyloid nucleation score result is “inactive”.

For LLGISLLSLWTFGYLSEIVV, the amyloid nucleation score is 0 ± 0.8.

The substance GSFENSTRTYVSIIRR had an amyloid nucleation score of 4.73 ± 0.045.

With HCGFDQVLEGLTLR, the amyloid nucleation score was 0.097 ± 0.42.

YISGWYCVNTVSRNNSYRES registered an amyloid nucleation score of -1.72 ± 0.49.

YMCRYGFMDNFCAVHVSFVE gave an amyloid nucleation score of 5.645 ± 0.055.

CHSLRILRPRIYSVQVMLIG came in with an amyloid nucleation score of -0.01 ± 0.63.

Consider PIGHLFQET, for which the amyloid nucleation score was determined as 0.92 ± 0.24.

For the substance CLGSLHNVLQALAMTEPSNY, the amyloid nucleation score was 0.044 ± 0.79.

In turn, VVIRCFYGTERNASWLLVCL returned an amyloid nucleation score of -0.059 ± 0.24.

Substance NFVRRSKSDKPCCYKTHSST gave an amyloid nucleation score of -0.747 ± 0.41.

IPRGLFCLLYNVVKEYFVLR returned an amyloid nucleation score of 0.198 ± 0.4.

In turn, NVDRRQGETWSNPYDLMRRL displayed an amyloid nucleation score of 0.291 ± 0.19.

CEFMCLQGSRDRIDFLHRSE returned an amyloid nucleation score of -1 ± 0.34.

Substance CRMHVFVEC had an amyloid nucleation score of -0.019 ± 0.53.

MGSAS: the amyloid nucleation score is 0.682 ± 0.34.

As for PEPFS, the amyloid nucleation score entry is “inactive”.

RCVTERFPDM displayed an amyloid nucleation score of 0.408 ± 0.5.

RMDVISEKFVWANESNCGVA returned an amyloid nucleation score of 0.362 ± 0.25.

As for WIFSPGLMDFVEHDNLEWIA, the amyloid nucleation score is 0.67 ± 0.44.

The substance QRPAGYHQTLSVARQRLRPD had an amyloid nucleation score of -0.73 ± 0.76.

Consider YAIGDNAA, for which the amyloid nucleation score is 0.111 ± 0.32.

LALFALMLLLF came in with an amyloid nucleation score of -0.055 ± 0.26.

Regarding NTIEGPRYYGTFAISNGVTQ, the amyloid nucleation score was determined as 0.824 ± 0.48.

Consider RDREIVQSLLHVLSQASLFV, for which the amyloid nucleation score is -0.456 ± 0.35.

In the case of DCWNCIISGSSALCAHVQSV, the amyloid nucleation score entry is “inactive”.

As to SRGWTRMRSYVVSSDFILLK, the amyloid nucleation score is 0.178 ± 0.48.

Turning to MVLRKLTYILPTRLLGQRFL, the amyloid nucleation score entry was “inactive”.

In turn, IENRLWIWSLH registered an amyloid nucleation score of 0.673 ± 0.32.

Take DRLTG: the amyloid nucleation score is -0.705 ± 1.1.

As to LHIESRLRRSSQEKSN, the amyloid nucleation score came out at 0.012 ± 0.45.

For the substance LLFSSSSLPIGTGGYDLTAG, the amyloid nucleation score is -0.408 ± 1.1.

In the case of PYNMVVYLGLLSRC, the amyloid nucleation score worked out at 0.919 ± 0.17.

For CIVMLRTIIQRSFNMSMTHY, the amyloid nucleation score was found to be 3.2 ± 0.058.

The substance FRQRDKRVTEMTPAERGGQ had an amyloid nucleation score of 2.79 ± 0.091.

Substance KSQILACYNQLP gave an amyloid nucleation score of 0.83 ± 0.48.

The substance FFIWKVLDWHLNSRSYRWFG displayed an amyloid nucleation score of -0.325 ± 0.76.

With VVRYLPCRRLPVWWVVCYEI, the amyloid nucleation score is 0.488 ± 0.29.

On to CNVSSELCYYGMSTYIKNPM, for which the amyloid nucleation score is -0.947 ± 0.32.

For the substance AWFMCSFECVTRSVKHALR, the amyloid nucleation score worked out at 0.523 ± 0.64.

Consider FCSFSMFRLAS, for which the amyloid nucleation score was determined as 0.606 ± 0.8.

As for RRNFGGNLNWIDIVYEHVCL, the amyloid nucleation score is 0.09 ± 0.33.

For AYSGIECGVVQWSFYRRKLI, the amyloid nucleation score result was “inactive”.

For DGTYLQNRRDFNNGSARRGW, the amyloid nucleation score amounted to 0.984 ± 0.57.

Substance YLARASYS came in with an amyloid nucleation score of 0.258 ± 0.18.

LGDLFYYFTVRK came in with an amyloid nucleation score of 0.389 ± 0.66.

As for HCFALGR, the amyloid nucleation score was found to be 0.088 ± 0.21.

For STGSNFDESSKQCFAFICKK, the amyloid nucleation score result is “inactive”.

RWTWNSEVRNLRIFASYPGC came in with an amyloid nucleation score of -0.418 ± 1.1.

In turn, VGVYICFILGH had an amyloid nucleation score of 3.56 ± 0.14.

Take YSEVTVRSSAAL: the amyloid nucleation score is 0.863 ± 0.29.

RRYGKW gave an amyloid nucleation score of 1.67 ± 0.41.

For LTYNISQCYILFFVYITGHD, the amyloid nucleation score entry is “inactive”.

For the substance SYVGVSNGRVVWVRVMANSK, the amyloid nucleation score entry is “inactive”.

For the substance LSPTYRFGTTSSWGINGRDT, the amyloid nucleation score came out at 0.716 ± 0.24.

In the case of SCGYFITKKEH, the amyloid nucleation score was -0.679 ± 0.3.

In turn, ETRRSYV showed an amyloid nucleation score of 0.563 ± 0.38.

LDVAGKVKASHKLRAWVWFS registered an amyloid nucleation score of 0.436 ± 0.8.

Turning to WQGEPHPIHFMLSFVLMGW, the amyloid nucleation score turned out to be 0.957 ± 0.21.

Substance SIYRFDLTYPNRHHCYNVVI had an amyloid nucleation score of -0.184 ± 1.1.

Consider ESSVITGLWHV, for which the amyloid nucleation score was -0.081 ± 0.8.

For CQMYHKCALVLLAGHQLRRR, the amyloid nucleation score is 1.19 ± 0.33.

The substance FNCPRSAMIVNQRHRILSGV registered an amyloid nucleation score of -0.057 ± 0.43.

As for LHSYWH, the amyloid nucleation score was found to be 0.121 ± 0.2.

The substance LSQARVYLCYFEFSYFVVEP returned an amyloid nucleation score of 1.83 ± 0.12.

GLISIAVSRRVYLFCLVAPV gave an amyloid nucleation score of -0.541 ± 0.79.

As for PLPGFRIMFLWRQNALPVQP, the amyloid nucleation score is 0.196 ± 0.64.

FISSADLVTNMPRI gave an amyloid nucleation score of -0.8 ± 0.31.

On to TLKVRNLNVQEFVVSPNQRH, for which the amyloid nucleation score worked out at 4.99 ± 0.088.

LFWGWITFTKECTNWGATIG registered an amyloid nucleation score of 0.895 ± 0.58.

Consider LLTRLKGGPPARAPHSTSGL, for which the amyloid nucleation score worked out at 1.91 ± 0.13.

In turn, YINLIWFSYMFGESFARGQR came in with an amyloid nucleation score of 4 ± 0.13.

As to TMLSLSDISFQLKKILL, the amyloid nucleation score stood at 2.56 ± 0.15.

DSSKSMCLICSNCILNFSEM yielded an amyloid nucleation score of 8.698 ± 0.049.

With YKWWDLCLNFPCGRLKAQPR, the amyloid nucleation score was determined as 1.28 ± 0.25.

Substance WSDLFRRTMCGVW returned an amyloid nucleation score of 0.624 ± 0.66.

In the case of GFCQASSWM, the amyloid nucleation score was -0.109 ± 0.76.

Substance LTSMRRCPGVYVGNCGVAGR gave an amyloid nucleation score of 1 ± 0.35.

With EDGGLCSASVRLYG, the amyloid nucleation score was 0.379 ± 0.33.

As for LYPRPPYSRWIIANHSNWGS, the amyloid nucleation score worked out at 0.218 ± 0.8.

For YVYDISGRITVNPITYKCQL, the amyloid nucleation score is -1.16 ± 0.64.

For the substance CYCDSWIMAS, the amyloid nucleation score was -1.69 ± 0.55.

AIIPRMLKYRERGKPTKRDT: the amyloid nucleation score turned out to be 0.291 ± 0.24.

Substance MCFSIRPPGVMRVMHLTLVW registered an amyloid nucleation score of 0.135 ± 0.79.

MFDFCPIMTLF displayed an amyloid nucleation score of -0.771 ± 1.1.

Turning to ESFLDINGVLRLRRLYVQSQ, the amyloid nucleation score was found to be 0.587 ± 0.56.

Regarding YEHLDIGNHKLGRCNRNFIA, the amyloid nucleation score was -0.191 ± 1.1.

Substance KAWLSSKITKM yielded an amyloid nucleation score of 0.131 ± 1.

As to IFKQVTIYLYGGRSLLGSRR, the amyloid nucleation score was -0.507 ± 0.54.

In turn, TTLYMACYSSCDEGN displayed an amyloid nucleation score of -0.193 ± 0.27.

Regarding GSYYCIDVGASRRPVWILSA, the amyloid nucleation score stood at 0.855 ± 0.48.

In the case of SRHRLAMRTAGTRVVSCWG, the amyloid nucleation score came out at 0.285 ± 0.3.

In the case of LRRTSVVIGRVRSSRLCGLR, the amyloid nucleation score stood at 9.336 ± 0.054.

The substance AMYFRVVLA gave an amyloid nucleation score of 1.25 ± 0.31.

In turn, KEPGERRYGTAASMNYTKVD returned an amyloid nucleation score of -0.71 ± 1.

In turn, YMCKVSPLRILSF returned an amyloid nucleation score of 2.66 ± 0.056.

Consider QCVVTVCDRL, for which the amyloid nucleation score amounted to 1.73 ± 0.13.

For PVLFYSLYIVNVNTLYMSSG, the amyloid nucleation score was determined as 7.857 ± 0.051.

RLFRFPNVLHDLICNMYICA: the amyloid nucleation score turned out to be 6.024 ± 0.049.

Turning to EWVYFLCSFHPSIDFLNISD, the amyloid nucleation score is 5.62 ± 0.076.

TSWCSIHTVMLYLFLIVCQY: the amyloid nucleation score result is “inactive”.

As to PFSIVIVANFYIITYEACFL, the amyloid nucleation score came out at 2.85 ± 0.14.

As to IWIKNTSLLLLCRLSHCHNI, the amyloid nucleation score result was “inactive”.

The substance GLSAMDDRMVPRIIYWIRLW returned an amyloid nucleation score of -0.217 ± 0.36.

LYLTSNIFLCLIYDL returned an amyloid nucleation score of 0.576 ± 0.18.
